Test results as given in patent publication US20200407424A1 (FRAUNHOFER GESELLSCHAFT ZUR F RDERUNG DER ANGEWANDTEN …, published 2020).
Like-named read-outs stand apart in the source and are kept apart here. Values belong to the binder of their own block, whether it stands above or below them. Square brackets hold non-standard residues; d marks the D form. Ends that are not written are not given here. Cit = NC(=O)NCCC[C@H](N)C(=O)O

Tests used:
Assay in all cases: in vitro binding assay
[1] = target: T1, recombinant MHC class II protein of the HLA DRB1 0401 genotype (human)
T1 construct: construct not described; also called HLA-DR0401

[2] = target: T2, recombinant MHC class II protein of the HLA DRB1 0101 genotype (human)
T2 construct: construct not described

[3] = target: T3, recombinant MHC class II protein of the HLA DRB1 0404 genotype (human)
T3 construct: construct not described

[4] = target: T4, recombinant MHC class II protein of the HLA DRB1 0405 genotype (human)
T4 construct: construct not described

[5] = target: T3, recombinant MHC class II protein of the …; remark: listed apart in the source
[6] = target: T5, recombinant MHC class II protein of the HLA DRB1 0408 genotype (human)
T5 construct: construct not described

[7] = target: T6, recombinant MHC class II protein of the HLA DRB1 1001 genotype (human)
T6 construct: construct not described

[8] = target: T2, recombinant MHC class II protein of the …; remark: listed apart in the source
[9] = target: T4, recombinant MHC class II protein of the …; remark: listed apart in the source
[10] = target: T1, recombinant MHC class II protein of the …; remark: listed apart in the source

Binder: YATRSSAVRLRSSVP [vimentin peptide ref no 13]
binding result [1]: no binding | binding result [2]: binds

Binder: SAVRLRSSVPGVRLL [vimentin peptide ref no 14]
binding result [3]: binds

Binder: LLAELEQLKGQGKSR [vimentin peptide ref no 27]
binding result [3]: no binding | binding result [2]: binds

Binder: NDKARVEVERDNLAE [vimentin peptide ref no 34]
binding result [1]: binds | binding result [2]: no binding | binding result [4]: no binding

Binder: NTLQSFRQDVDNASL [vimentin peptide ref no 41]
binding result [1]: binds | binding result [3]: binds | binding result [4]: binds

Binder: DVRQQYESVAAKNLQ [vimentin peptide ref no 55]
binding result [1]: binds | binding result [2]: binds

Binder: GQVINETSQHHDDLE [vimentin peptide ref no 92]
binding result [3]: binds

Binder: Y[Cit][Cit]MFGGPGTAS[Cit]PS [citrullinated vimentin peptide ref no 95]
binding result [1]: binds | binding result [2]: binds

Binder: LLAELEQLKGQGKS[Cit] [citrullinated vimentin peptide ref no 117]
binding result [3]: no binding | binding result [2]: binds | binding result [4]: no binding

Binder: STEY[Cit][Cit]QVQSLTCEV [citrullinated vimentin peptide ref no 145]
binding result [1]: binds

Binder: XEYQDLLNVKMALDI (citrulline (Xaa) at 1) [citrullinated vimentin peptide ref no 156]
binding result [2]: binds

Binder: F[Cit]AAVPSGASTGIYE [citrullinated a-enolase peptide ref no 292]
binding result [5]: binds | binding result [6]: no binding | binding result [7]: no binding | binding result [8]: binds | binding result [9]: binds | binding result [10]: binds

Binder: QEFMILPVGAANF[Cit]E [citrullinated a-enolase peptide ref no 301]
binding result [5]: binds | binding result [6]: no binding | binding result [7]: no binding | binding result [8]: no binding | binding result [9]: binds | binding result [10]: binds

Binder: KAKFAG[Cit]NF[Cit]NPLAK [citrullinated a-enolase peptide ref no 324]
binding result [5]: binds | binding result [6]: no binding | binding result [7]: no binding | binding result [8]: no binding | binding result [9]: binds | binding result [10]: binds

Binder: QEFMILPVGAANFRE [a-enolase peptide ref no 34]
binding result [5]: binds | binding result [6]: no binding | binding result [7]: no binding | binding result [8]: binds | binding result [9]: binds

Binder: YRHIADLAGNSEVIL [corresponding non-citrullinated peptide of a-enolase peptide 300]
binding result [10]: no binding

Binder: LPVGAANFREAMRIG [corresponding non-citrullinated peptide of a-enolase peptide 302]
binding result [10]: no binding

Further lines, results first:

binding result [1]: binds | binding result [2]: no binding
Binder: GVRLLQDSVDFSLAD [vimentin peptide ref no 16]

binding result [1]: binds
Binder: FKNTRTNEKVELQEL [vimentin peptide ref no 20]

binding result [3]: binds | binding result [2]: binds
Binder: ELRRQVDQLTNDKAR [vimentin peptide ref no 32]

binding result [1]: binds | binding result [3]: no binding | binding result [2]: binds
Binder: FRQDVDNASLARLDL [vimentin peptide ref no 42]

binding result [3]: binds
Binder: ARLDLERKVESLQEE [vimentin peptide ref no 44]

binding result [1]: binds
Binder: YKSKFADLSEAANRN [vimentin peptide ref no 59]

binding result [1]: binds | binding result [2]: binds | binding result [4]: binds
Binder: STEYRRQVQSLTCEV [vimentin peptide ref no 64]

binding result [1]: binds
Binder: FAVEAANYQDTIGRL [vimentin peptide ref no 71]

binding result [2]: binds | binding result [4]: binds
Binder: REYQDLLNVKMALDI [vimentin peptide ref no 77]

binding result [1]: no binding | binding result [3]: binds | binding result [2]: binds
Binder: MALDIEIATYRKLLE [vimentin peptide ref no 79]

binding result [1]: binds | binding result [3]: binds | binding result [2]: no binding
Binder: MST[Cit]SVSSSSY[Cit][Cit]MF [citrullinated vimentin peptide ref no 93]

binding result [1]: binds | binding result [4]: binds
Binder: SS[Cit]SYVTTST[Cit]TYSL [citrullinated vimentin peptide ref no 98]

binding result [1]: binds | binding result [2]: binds
Binder: VTTST[Cit]TYSLGSAL[Cit] [citrullinated vimentin peptide ref no 99]

binding result [2]: binds
Binder: F[Cit]QDVDNASLA[Cit]LDL [citrullinated vimentin peptide ref no 132]

binding result [1]: binds
Binder: FAVEAANYQDTIG[Cit]L [citrullinated vimentin peptide ref no 150]

binding result [1]: binds | binding result [3]: no binding
Binder: XKLLEGEESXISLPL (citrulline (Xaa) at 1, 10) [citrullinated vimentin peptide ref no 159]

binding result [5]: binds | binding result [6]: no binding | binding result [7]: binds | binding result [8]: binds | binding result [9]: binds | binding result [10]: binds
Binder: MSILKIHA[Cit]EIFDS[Cit] [citrullinated a-enolase peptide ref no 287]

binding result [5]: no binding | binding result [6]: no binding | binding result [7]: no binding | binding result [8]: no binding | binding result [9]: binds | binding result [10]: binds
Binder: IFDS[Cit]GNPTVEVDLF [citrullinated a-enolase peptide ref no 289]

binding result [5]: no binding | binding result [6]: no binding | binding result [7]: no binding | binding result [8]: no binding | binding result [9]: binds | binding result [10]: binds
Binder: [Cit]YMGKGVSKAVEHIN [citrullinated a-enolase peptide ref no 297]

binding result [5]: no binding | binding result [6]: no binding | binding result [7]: no binding | binding result [8]: no binding | binding result [9]: binds | binding result [10]: binds
Binder: Y[Cit]HIADLAGNSEVIL [citrullinated a-enolase peptide ref no 300]

binding result [5]: binds | binding result [6]: no binding | binding result [7]: no binding | binding result [8]: no binding | binding result [9]: binds | binding result [10]: binds
Binder: LPVGAANF[Cit]EAM[Cit]IG [citrullinated a-enolase peptide ref no 302]

binding result [5]: no binding | binding result [6]: no binding | binding result [7]: no binding | binding result [8]: no binding | binding result [9]: binds | binding result [10]: binds
Binder: VIGMDVAASEFF[Cit]SG [citrullinated a-enolase peptide ref no 305]

binding result [5]: binds | binding result [6]: no binding | binding result [7]: no binding | binding result [8]: binds | binding result [9]: binds | binding result [10]: binds
Binder: K[Cit]IAKAVNEKSCNCL (cysteine pairing not given here) [citrullinated a-enolase peptide ref no 313]

binding result [5]: binds | binding result [6]: binds | binding result [7]: no binding | binding result [8]: no binding | binding result [9]: binds
Binder: VIGMDVAASEFFRSG [a-enolase peptide ref no 49]

binding result [10]: no binding
Binder: FRAAVPSGASTGIYE [corresponding non-citrullinated peptide of a-enolase peptide 292]

binding result [10]: no binding
Binder: KAKFAGRNFRNPLAK [corresponding non-citrullinated peptide of a-enolase peptide 324]
